{"source": "patent US20130343989A1", "about": "(SANFORD BURNHAM MEDICAL RESEARCH INSTITUTE, published 2013)", "key": {"[1]": {"biological_target": "T1, neuropilin-1 by forced expression in M21 cells (transfected neuropilin-1 cDNA) (UniProt O14786 22-923, limits assumed)", "T1 sequence (O14786 22-923 limits assumed)": "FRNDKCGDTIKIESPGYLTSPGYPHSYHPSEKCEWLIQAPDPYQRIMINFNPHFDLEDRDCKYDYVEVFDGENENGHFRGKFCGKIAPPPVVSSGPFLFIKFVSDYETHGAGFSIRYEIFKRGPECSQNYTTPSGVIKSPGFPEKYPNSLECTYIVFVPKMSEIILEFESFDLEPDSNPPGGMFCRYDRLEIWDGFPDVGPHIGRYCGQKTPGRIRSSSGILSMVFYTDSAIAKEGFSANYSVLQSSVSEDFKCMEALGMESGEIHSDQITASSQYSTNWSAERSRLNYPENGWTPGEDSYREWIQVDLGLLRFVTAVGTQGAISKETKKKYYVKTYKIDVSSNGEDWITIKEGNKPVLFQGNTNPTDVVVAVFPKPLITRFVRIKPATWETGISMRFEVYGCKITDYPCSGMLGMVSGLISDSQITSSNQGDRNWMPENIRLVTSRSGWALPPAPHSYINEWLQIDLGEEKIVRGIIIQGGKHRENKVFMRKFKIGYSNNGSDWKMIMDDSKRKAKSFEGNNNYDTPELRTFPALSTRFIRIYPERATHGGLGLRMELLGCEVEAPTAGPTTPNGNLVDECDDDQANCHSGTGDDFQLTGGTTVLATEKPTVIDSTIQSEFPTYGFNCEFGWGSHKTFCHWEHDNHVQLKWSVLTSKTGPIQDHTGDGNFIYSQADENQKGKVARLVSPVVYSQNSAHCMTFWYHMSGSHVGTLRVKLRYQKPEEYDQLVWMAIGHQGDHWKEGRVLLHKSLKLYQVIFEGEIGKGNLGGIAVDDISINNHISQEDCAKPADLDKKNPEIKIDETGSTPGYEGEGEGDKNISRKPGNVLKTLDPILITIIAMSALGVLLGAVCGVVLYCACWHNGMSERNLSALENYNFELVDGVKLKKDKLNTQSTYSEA", "experiment": "cell-based or functional assay"}, "[2]": {"biological_target": "T1, neuropilin-1 by forced expression in …", "experiment": "phage binding to M21 cells transfected with neuropilin-1 cDNA against vector alone or untransfected cells, phage titration", "protocol": "Suspended cells (10⁶ cells in DMEM containing 1% BSA) were incubated with 10⁸ pfu/ml of T7 phage for 1 hr at 4° C. The cells were washed 4 times with the binding buffer, lysed with lysogeny broth containing 1% NP-40, and titrated. Phage internalization assays used the same procedure, except that the cells were incubated with phage at 37° C., and that an acidic buffer (500 mM sodium chloride, 0.1 M glycine, 1% BSA, pH 2.5) was substituted for the binding buffer in the second wash. Inhibitors of binding and internalization were added 20 min prior to incubation with phage. […] Free synthetic peptides, mouse antibodies against human α1, α2, αvβ3, αvβ5, α5β1, α4, or αv integrins and integrin subunits (Chemicon), goat anti-rat neuropilin-1 (R&D Systems, Minneapolis, Minn.), with mouse and a goat IgG isotype controls (Abcam) were also tested."}}, "note": "Ends that are not written are not given here."}
{"binder": "CRGDK (also: displayed on T7 phage, CRGDK is the N-terminal proteolytic fragment of iRGD; also called CRGDK fragment; FAM-CRGDK)", "note": "[CRGDK phage (T7 phage displaying CRGDK)]", "values": [{"measurement": "internalization of CRGDK phage into M21 cells", "setting": "[1]", "result": 3.5, "unit": "fold"}, {"measurement": "fold increase of binding on forced expression of neuropilin-1 in M21 cells", "setting": "[2]", "result": 3.5, "unit": "fold"}]}
